# Test results from patent publication US20260009052, “CAS12 PROTEINS AND USES THEREOF” (GUANGZHOU REFORGENE MEDICINE CO., LTD., published 2026).
# T1: C12-279 (synthetic construct)
# T1 chain: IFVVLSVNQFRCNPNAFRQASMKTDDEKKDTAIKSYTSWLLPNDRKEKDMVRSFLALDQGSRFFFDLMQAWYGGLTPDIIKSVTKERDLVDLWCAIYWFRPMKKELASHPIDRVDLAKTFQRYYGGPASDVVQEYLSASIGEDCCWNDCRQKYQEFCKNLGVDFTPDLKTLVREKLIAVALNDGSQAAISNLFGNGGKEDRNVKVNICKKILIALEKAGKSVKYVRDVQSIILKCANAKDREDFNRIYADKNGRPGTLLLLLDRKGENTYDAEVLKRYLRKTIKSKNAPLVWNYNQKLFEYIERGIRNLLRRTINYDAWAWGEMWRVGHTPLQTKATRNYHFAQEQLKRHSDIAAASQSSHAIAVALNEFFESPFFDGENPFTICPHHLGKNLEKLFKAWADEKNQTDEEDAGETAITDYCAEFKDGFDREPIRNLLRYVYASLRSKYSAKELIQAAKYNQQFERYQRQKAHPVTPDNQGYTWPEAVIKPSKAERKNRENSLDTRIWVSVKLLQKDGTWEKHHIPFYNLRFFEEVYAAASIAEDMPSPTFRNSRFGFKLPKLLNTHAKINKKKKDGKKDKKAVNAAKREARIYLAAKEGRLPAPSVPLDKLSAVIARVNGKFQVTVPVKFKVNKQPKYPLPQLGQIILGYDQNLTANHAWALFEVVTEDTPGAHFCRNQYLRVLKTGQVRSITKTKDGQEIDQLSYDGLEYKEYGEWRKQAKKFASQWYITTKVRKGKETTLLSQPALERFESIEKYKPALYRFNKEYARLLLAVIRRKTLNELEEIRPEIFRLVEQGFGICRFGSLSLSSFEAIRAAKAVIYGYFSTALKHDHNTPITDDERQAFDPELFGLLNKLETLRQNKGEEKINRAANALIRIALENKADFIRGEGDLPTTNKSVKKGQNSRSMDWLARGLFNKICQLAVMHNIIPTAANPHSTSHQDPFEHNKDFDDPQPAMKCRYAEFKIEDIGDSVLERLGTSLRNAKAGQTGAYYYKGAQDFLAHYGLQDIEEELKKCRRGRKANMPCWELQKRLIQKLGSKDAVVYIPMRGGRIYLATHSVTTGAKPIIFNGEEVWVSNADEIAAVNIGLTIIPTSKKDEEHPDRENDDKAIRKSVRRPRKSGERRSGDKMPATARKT
# T2: C12-279 L260R (synthetic construct, L260R)
# T2 chain: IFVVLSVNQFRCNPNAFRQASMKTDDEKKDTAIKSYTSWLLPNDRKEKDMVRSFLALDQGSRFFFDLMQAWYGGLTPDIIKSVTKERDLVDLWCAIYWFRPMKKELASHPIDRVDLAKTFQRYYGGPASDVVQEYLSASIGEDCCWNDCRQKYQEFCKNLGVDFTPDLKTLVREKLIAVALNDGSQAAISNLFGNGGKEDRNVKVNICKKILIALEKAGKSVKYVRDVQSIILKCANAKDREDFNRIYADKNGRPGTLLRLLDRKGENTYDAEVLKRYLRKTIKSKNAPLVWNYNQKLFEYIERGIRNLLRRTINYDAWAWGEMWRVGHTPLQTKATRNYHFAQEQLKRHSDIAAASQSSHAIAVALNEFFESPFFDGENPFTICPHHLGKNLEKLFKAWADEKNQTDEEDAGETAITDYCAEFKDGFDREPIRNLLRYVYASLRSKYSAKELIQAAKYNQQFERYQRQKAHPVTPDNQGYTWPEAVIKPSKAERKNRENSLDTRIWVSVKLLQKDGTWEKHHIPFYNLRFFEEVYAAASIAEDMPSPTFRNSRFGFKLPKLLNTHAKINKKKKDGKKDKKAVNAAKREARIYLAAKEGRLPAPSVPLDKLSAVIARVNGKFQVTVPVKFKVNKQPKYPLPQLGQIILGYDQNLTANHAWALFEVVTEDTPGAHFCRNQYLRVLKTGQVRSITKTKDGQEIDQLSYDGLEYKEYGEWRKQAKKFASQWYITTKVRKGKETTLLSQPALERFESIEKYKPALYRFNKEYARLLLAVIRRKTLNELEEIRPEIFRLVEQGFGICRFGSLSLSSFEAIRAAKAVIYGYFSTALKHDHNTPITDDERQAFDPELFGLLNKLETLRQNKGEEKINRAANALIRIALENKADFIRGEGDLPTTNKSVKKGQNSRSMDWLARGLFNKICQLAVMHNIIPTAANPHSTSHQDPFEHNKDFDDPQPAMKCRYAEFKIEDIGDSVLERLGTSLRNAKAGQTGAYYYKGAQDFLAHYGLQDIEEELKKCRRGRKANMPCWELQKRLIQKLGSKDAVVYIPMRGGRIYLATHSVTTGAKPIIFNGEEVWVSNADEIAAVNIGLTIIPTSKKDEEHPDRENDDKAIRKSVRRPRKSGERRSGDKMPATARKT
# Assays:
# C12-279 = target: T1, C12-279; experiment: cell_activity; PAM TTG; GFP reporter; conditions: tags: NLS
# C12-279 L260R = target: T2, C12-279 L260R; experiment: cell_activity; PAM TTG; +/-0.14
# Protocol: Transfection: transfection was performed 12-14 h after plating. 1.5 μL PEI (Yeasen Biotechnology, 40815ES03, Polyethylenimine Linear (PEI) MW25000) and 500 ng mutation clone plasmid were added to 100 μL Opti-MEM per well of the 24-well plate, mixed, and added to the NAAN cell line for cell transfection after placing at room temperature for 20 min. After overnight transfection, a fresh culture medium was replaced, and the culture was continued for 72 h, followed by flow cytometry. Editing efficiencies of different mutant clones were characterized by the proportion of GFP-positive cells.
# Editing efficiency of some selected mutants was tested in Reporter3 cell line using the same manner as described for the NAAN reporter system, except that the cell line was changed from NAAN cell line to Reporter3 cell line.
binder,measurement,setting,value
C12-279 Reporter3 sgRNA ; Reporter3 target (ssRNA ; dsDNA) RNA: GUAAUGCGUCUCCCAUUGACGCCUCACCUCGCGACGCAAUGAUG DNA 1: CTCACCTCGCGACGCAATGATG DNA 2: CATCATTGCGTCGCGAGGTGAG,binding signal,C12-279,1 fold of C12-279
same,binding signal,C12-279 L260R,0.66 fold of C12-279
